Measurements from the Immune Epitope Database (IEDB).

The sequences below were run against HLA-A*02:01 (assay: IEDB peptide-MHC binding, purified MHC/direct/fluorescence; filed as Kd, often an IC50 or EC50 that approximates it; ≥ and ≤ were set here for values at or beyond the usual limits of such assays). Conditions: source organism: Influenza A virus (A/Puerto Rico/8/1934(H1N1)).
YLIRALTLNTM was tested, and the Kd was 46 nM.
In the case of GMFNMLSTV, the Kd is reported as 23 nM.
In the case of MMMGMFNMLST, the Kd is reported as 36 nM.
With WMMAMKYPI the Kd was 36 nM.
Sequence VLMEWLKTRPI has a Kd of 101 nM.
LLQNSQVYS gave a Kd of 1370 nM.
Work on FMQALHLLL yielded a Kd of 13 nM.
Sequence FLLMDALKLSI has a Kd of 24 nM.
WMMAMKYPITA gave a Kd of 75 nM.
FLARSALIL gave a Kd of 0.9 nM.
SLVGIDPFRL was tested, and the Kd was 70 nM.
Sequence GMFNMLSTVL has a Kd of 384 nM.
In the case of MMGMFNMLSTV, the Kd is reported as 51 nM.
In the case of RMGAVTTEV, the Kd is reported as 133 nM.
Work on IILKANFSV yielded a Kd of 45 nM.
FLKDVMESM showed a Kd of 51 nM.
FLAMITYMT showed a Kd of 253 nM.
